Article PMC11338459, “Cryo-EM structures of the human band 3 transporter indicate a transport mechanism involving the coupled movement of chloride and bicarbonate ions” (PLOS Biology, 2024)

Target: the molecule itself
Test: cryo-EM structure; detergent-solubilized raw ghost membrane of human RBC reconstituted into MSP1E3D1 nanodiscs (POPC:POPE:POPG), enriched on Superose 6 in 20 mM Tris-HCl pH 7.5, 100 mM NaCl; Build and Retrieve processing; OF-IF and IF-IF dimers

B1: human band 3 anion transporter (natural protein, UniProt P02730 1-911, looked up)
chain: MEELQDDYEDMMEENLEQEEYEDPDIPESQMEEPAAHDTEATATDYHTTSHPGTHKVYVELQELVMDEKNQELRWMEAARWVQLEENLGENGAWGRPHLSHLTFWSLLELRRVFTKGTVLLDLQETSLAGVANQLLDRFIFEDQIRPQDREELLRALLLKHSHAGELEALGGVKPAVLTRSGDPSQPLLPQHSSLETQLFCEQGDGGTEGHSPSGILEKIPPDSEATLVLVGRADFLEQPVLGFVRLQEAAELEAVELPVPIRFLFVLLGPEAPHIDYTQLGRAAATLMSERVFRIDAYMAQSRGELLHSLEGFLDCSLVLPPTDAPSEQALLSLVPVQRELLRRRYQSSPAKPDSSFYKGLDLNGGPDDPLQQTGQLFGGLVRDIRRRYPYYLSDITDAFSPQVLAAVIFIYFAALSPAITFGGLLGEKTRNQMGVSELLISTAVQGILFALLGAQPLLVVGFSGPLLVFEEAFFSFCETNGLEYIVGRVWIGFWLILLVVLVVAFEGSFLVRFISRYTQEIFSFLISLIFIYETFSKLIKIFQDHPLQKTYNYNVLMVPKPQGPLPNTALLSLVLMAGTFFFAMMLRKFKNSSYFPGKLRRVIGDFGVPISILIMVLVDFFIQDTYTQKLSVPDGFKVSNSSARGWVIHPLGLRSEFPIWMMFASALPALLVFILIFLESQITTLIVSKPERKMVKGSGFHLDLLLVVGMGGVAALFGMPWLSATTVRSVTHANALTVMGKASTPGAAAQIQEVKEQRISGLLVAVLVGLSILMEPILSRIPLAVLFGIFLYMGVTSLSGIQLFDRILLLFKPPKYHPDVPYVKRVKTWRMHLFTGIQIICLAVLWVVKSTPASLALPFVLILTVPLRRVLLPLIFRNVELQCLDADDAKATFDEEEGRDEYDEVAMPV
modifications: N-linked N-acetylglucosamine (NAG) at N642
notes: band 3 anion transporter (AE1), human erythrocyte form of 911 amino acids, encoded by SLC4A1; endogenous protein from ghost membranes; the model of each subunit holds residues 372-888 except 743-751; Native protein from a crude membrane extract, identified from the cryo-EM maps (Build and Retrieve, Model Angelo); PC and PIP2 lipids lie at the subunit interface; also called band 3 transporter; …
- stoichiometry N: 2
